One block for each binder: values may come before it.
Molecular target: FGFR1c/alpha-klotho receptor complex, human, pre-formed (SPR analyte) (human) (UniProt P11362)
Assay: SPR competition: FGF23 on the chip surface, FGFR1c-alphaKlotho complex in solution mixed with the competitor; Ki listed at the upper right of the sheet

Ki: 31 nM
B1: Wild Type Human FGF23 c-tail 180-251 (72 amino acid peptide) (peptide)
peptide: SAEDDSERDPLNVLKPRARMTPAPASCSQELPSAEDNSPMASDPLGVVRGGRVNTHAGGTGPEGCRPFAKFI

Ki: 46 nM
B2: N-terminal FGF23 c-tail Fc fusion (Fc fusion, not shown: a dimerising Fc or GST; small tags and cut ends)
chain: B1 peptide
